Experiments:
Test in all cases: cell-based or functional assay
CLK3(h) (human) = CLK3(h) (human) (UniProt P49761)
DDR2(h) (human) = biological target: T1, DDR2(h) (human) (UniProt Q16832)
T1 sequence (looked up): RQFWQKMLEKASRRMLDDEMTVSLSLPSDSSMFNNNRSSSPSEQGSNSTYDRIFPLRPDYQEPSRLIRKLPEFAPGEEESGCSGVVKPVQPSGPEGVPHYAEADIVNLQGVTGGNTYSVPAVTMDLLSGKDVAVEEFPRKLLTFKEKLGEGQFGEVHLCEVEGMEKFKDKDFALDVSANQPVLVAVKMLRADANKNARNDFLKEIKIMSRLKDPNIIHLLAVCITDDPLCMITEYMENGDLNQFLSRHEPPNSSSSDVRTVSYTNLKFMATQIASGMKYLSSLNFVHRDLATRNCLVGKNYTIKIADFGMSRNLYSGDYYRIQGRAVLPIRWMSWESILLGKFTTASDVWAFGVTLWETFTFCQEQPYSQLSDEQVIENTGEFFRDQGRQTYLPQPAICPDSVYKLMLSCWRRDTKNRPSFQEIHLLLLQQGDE

GCK(h) (human) = biological target: T2, GCK(h) (human) (UniProt Q12851)
T2 sequence (looked up): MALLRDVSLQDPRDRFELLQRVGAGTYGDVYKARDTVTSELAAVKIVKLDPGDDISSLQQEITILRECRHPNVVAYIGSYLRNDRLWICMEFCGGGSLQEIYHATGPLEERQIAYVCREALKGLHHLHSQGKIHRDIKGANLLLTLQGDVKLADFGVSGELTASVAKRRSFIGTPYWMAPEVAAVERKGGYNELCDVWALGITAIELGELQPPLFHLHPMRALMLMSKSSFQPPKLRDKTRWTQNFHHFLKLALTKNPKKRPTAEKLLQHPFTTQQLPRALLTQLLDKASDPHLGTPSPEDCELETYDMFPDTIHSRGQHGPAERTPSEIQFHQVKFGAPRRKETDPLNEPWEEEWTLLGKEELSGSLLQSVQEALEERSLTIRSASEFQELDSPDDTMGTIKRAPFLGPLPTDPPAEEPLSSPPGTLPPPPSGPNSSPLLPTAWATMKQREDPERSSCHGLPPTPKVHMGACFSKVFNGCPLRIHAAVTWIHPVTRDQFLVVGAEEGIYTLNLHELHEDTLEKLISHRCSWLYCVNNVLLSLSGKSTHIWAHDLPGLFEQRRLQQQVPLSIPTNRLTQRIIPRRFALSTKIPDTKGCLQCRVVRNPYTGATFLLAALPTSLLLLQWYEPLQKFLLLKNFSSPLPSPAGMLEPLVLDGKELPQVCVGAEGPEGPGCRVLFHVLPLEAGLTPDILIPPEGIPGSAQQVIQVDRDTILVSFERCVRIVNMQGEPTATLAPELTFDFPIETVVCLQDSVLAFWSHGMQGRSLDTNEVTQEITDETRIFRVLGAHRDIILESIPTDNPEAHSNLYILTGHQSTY

PKBβ(h) (human) = PKBβ(h) (human) (UniProt P31751)
Sequence of PKBβ(h) (human) (P31751 whole entry): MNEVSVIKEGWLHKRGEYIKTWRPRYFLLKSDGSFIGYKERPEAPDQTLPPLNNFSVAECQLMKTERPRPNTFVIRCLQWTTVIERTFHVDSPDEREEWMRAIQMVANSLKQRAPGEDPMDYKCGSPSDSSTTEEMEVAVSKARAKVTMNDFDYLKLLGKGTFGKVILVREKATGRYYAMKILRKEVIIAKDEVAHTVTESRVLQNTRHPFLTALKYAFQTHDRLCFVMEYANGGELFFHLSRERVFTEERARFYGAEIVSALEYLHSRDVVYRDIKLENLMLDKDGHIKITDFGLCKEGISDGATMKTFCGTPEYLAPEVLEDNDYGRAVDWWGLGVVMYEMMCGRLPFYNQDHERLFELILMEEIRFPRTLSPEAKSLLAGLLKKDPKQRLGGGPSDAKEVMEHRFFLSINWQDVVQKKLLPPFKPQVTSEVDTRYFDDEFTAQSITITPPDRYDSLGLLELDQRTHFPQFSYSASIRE

PKCµ(h) (human) = biological target: T3, PKCµ(h) (human) (UniProt Q15139)
T3 sequence (looked up): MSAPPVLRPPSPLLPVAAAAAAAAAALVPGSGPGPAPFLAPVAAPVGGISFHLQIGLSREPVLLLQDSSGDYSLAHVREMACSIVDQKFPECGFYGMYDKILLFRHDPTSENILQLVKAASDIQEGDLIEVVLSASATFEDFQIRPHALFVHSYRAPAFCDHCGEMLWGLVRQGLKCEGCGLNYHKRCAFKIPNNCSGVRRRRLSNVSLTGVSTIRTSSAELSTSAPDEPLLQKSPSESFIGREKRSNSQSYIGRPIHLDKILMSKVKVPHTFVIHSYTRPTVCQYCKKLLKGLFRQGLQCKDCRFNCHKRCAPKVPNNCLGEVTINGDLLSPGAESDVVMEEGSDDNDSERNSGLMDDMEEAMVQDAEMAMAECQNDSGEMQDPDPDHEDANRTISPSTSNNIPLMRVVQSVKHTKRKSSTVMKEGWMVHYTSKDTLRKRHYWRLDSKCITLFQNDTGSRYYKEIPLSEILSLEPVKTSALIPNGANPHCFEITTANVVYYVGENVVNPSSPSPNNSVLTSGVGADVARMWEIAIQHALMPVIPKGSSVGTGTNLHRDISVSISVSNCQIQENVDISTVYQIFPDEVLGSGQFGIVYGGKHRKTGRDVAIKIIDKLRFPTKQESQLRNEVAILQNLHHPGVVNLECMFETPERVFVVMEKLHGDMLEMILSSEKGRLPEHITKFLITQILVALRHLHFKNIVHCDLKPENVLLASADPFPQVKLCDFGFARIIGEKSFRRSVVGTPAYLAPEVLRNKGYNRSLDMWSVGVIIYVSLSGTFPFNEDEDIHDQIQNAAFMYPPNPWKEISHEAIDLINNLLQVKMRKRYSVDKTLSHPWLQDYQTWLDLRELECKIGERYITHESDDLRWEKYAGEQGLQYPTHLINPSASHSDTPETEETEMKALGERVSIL

PhKγ2(h) (human) = biological target: T4, PhKγ2(h) (human) (UniProt P15735)
T4 sequence (looked up): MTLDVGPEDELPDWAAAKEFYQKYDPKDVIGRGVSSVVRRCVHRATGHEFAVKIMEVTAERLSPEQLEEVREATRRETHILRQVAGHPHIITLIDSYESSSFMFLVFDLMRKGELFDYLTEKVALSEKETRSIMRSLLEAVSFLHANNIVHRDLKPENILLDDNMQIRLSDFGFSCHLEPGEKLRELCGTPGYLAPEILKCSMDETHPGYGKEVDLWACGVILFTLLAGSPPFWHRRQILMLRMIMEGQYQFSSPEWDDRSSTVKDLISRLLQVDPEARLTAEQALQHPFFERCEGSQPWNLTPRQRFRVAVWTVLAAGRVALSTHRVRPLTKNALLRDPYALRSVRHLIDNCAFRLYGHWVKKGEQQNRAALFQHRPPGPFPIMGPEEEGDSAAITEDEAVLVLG

SAPK4(h) (human) = biological target: T5, SAPK4(h) (human) (UniProt O15264)
T5 sequence (looked up): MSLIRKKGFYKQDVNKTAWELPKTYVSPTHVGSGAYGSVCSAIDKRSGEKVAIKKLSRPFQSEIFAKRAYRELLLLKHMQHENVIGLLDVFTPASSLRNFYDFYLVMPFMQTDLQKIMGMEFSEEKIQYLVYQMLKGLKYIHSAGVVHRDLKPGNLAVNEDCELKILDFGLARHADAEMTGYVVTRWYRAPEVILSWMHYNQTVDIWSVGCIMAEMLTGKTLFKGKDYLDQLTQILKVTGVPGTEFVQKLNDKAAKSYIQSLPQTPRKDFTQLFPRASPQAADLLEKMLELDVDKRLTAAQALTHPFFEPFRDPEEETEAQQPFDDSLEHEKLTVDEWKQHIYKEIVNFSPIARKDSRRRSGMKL

Sequence of CLK3(h) (human) (P49761 whole entry): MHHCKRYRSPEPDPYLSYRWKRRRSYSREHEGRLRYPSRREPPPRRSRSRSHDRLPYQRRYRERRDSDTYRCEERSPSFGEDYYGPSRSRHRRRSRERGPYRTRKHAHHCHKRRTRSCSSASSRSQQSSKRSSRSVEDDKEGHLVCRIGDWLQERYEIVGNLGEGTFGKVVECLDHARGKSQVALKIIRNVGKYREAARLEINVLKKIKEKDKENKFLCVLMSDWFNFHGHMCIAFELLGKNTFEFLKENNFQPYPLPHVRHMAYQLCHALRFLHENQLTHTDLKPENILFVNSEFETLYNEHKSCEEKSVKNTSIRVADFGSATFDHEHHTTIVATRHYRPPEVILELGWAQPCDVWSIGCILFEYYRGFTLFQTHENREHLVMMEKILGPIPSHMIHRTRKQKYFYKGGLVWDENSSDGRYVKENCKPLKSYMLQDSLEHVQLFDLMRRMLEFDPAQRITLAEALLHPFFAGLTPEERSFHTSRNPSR

Substance: MMI-0500 (peptide)
- % activity, 100 µM (CLK3(h) (human)): 76%
- % activity, 100 µM (DDR2(h) (human)): 79%
- % activity, 100 µM (GCK(h) (human)): 30%
- % activity, 100 µM (PKBβ(h) (human)): 21%
- % activity, 100 µM (PKCµ(h) (human)): 10%
- % activity, 100 µM (PhKγ2(h) (human)): 16%
- % activity, 100 µM (SAPK4(h) (human)): 48%

Reference: patent US20140072613A1, “Compositions and Methods for Treating Cutaneous Scarring” (priority 2012, published 2014)
